Experimental data: publication PMC10730688

Target: phosphonull human rod opsin 6A mutant (human) (UniProt P08100)

Toff in the BRET G-protein activation assay, untethered co-expression of Rod6A and ArrWT (comparison for the Rod6A-ArrWT fusions): 1240 s
Substance: human visual arrestin (rod arrestin, arrestin-1), wildtype (from UniProt P10523 1-405) (natural protein)
